# B1: EpEX: extracellular domain of human EpCAM, 265 amino acids in length (SEQ ID NO: 2) (protein, listed as Homo sapiens)
# chain: MAPPQVLAFGLLLAAATATFAAAQEECVCENYKLAVNCFVNNNRQCQCTSVGAQNTVICSKLAAKCLVMKAEMNGSKLGRRAKPEGALQNNDGLYDPDCDESGLFKAKQCNGTSMCWCVNTAGVRRTDKDTEITCSERVRTYWIIIELKHKAREKPYDSKSLRTALQKEITTRYQLDPKFITSILYENNVITIDLVQNSSQKTQNDVDIADVAYYFEKDVKGESLFHSKKMDLTVNGEQLDLDPGQTLIYYVDEKAPEFSMQGLK
# What was measured:
# Format in all cases: cell-based, human
# [1] = tested on: Oct4, Sox2, c-Myc, Lin28; assay: qPCR of pluripotency factors in MSCs; conditions: EpEX treatment
# Description: The expression of let-7 was detected by qPCR. MSCs expressing EGFR shRNA, STAT3 shRNA or Lin28b shRNA were stimulated with EpEX. The expression of let-7 was detected by qPCR. […] Expression of pluripotency factors (Oct4, Sox2, c-Myc and Lin28) was examined by qPCR. MSCs were transfected with a let-7 mimetic, and then stimulated with EpEX. Protein levels of pluripotency factors (Oct4, Sox2, c-Myc, and Lin28) were examined by Western blotting.
# Total RNA was extracted using TRI reagent (Invitrogen, CA, USA), and 5 μg of total RNA was reverse transcribed using oligo (dT) primer (Fermentas, Glen Burnie, MD, USA) with SuperScript III reverse transcriptase (Invitrogen). Quantitative real time RT-PCR (qPCR) was performed on cDNA using the Light Cycler 480 SYBR Green I Master kit (Roche Applied Science, Indianapolis, IN) and the LightCycler480 System (Roche Applied Science). The gene expression levels of each sample were normalized to the expression levels of glyceraldehyde 3-phosphate dehydrogenase (GAPDH).
# [2] = tested on: Oct4, Sox2, c-Myc and EpCAM; assay: Flow cytometry of stemness markers in MSCs; conditions: data not shown
# Procedure: Cells were dissociated with 0.25% trypsin-EDTA (1 mM) (Invitrogen) for 3 min, washed with fluorescence-activated cell sorting buffer (FACS buffer, PBS containing 1% fetal bovine serum), fixed in 4% PFA, and then permeabilized with 0.1% Triton X-100 in PBS. Subsequently, cells were stained with Oct4, Sox2 or Nanog antibodies (1:100, ab 107156, Abcam, UK), washed and suspended in FACS buffer, and incubated with secondary antibody (1:200, Jackson ImmunoResearch) for 60 min at room temperature. Flow cytometry analysis was performed with a BD FACSCanto II flow cytometer (BD Biosciences, CA, USA).
# We used human bone marrow-derived MSCs to study the effects of EpEX and first investigated whether EpEX promotes cell proliferation of MSCs. […] Next, we examined the effect of EpEX on cell cycle progression by flow cytometry with propidium iodide (PI) staining. […] EpCAM has been reported to enhance cell cycle progression through upregulation of the proto-oncogene c-Myc and cyclin A/E (Munz et al., 2004). Additionally, EpCAM is known to upregulate cyclin D1 via its direct interaction partner, FHL2, and downstream events such as phosphorylation of the retinoblastoma protein, Rb (Chaves-Perez et al., 2013). Therefore, we further asked whether EpEX can function to upregulate the expression of cell cycle regulators and pluripotency markers. […]
# [3] = tested on: TACE (Ser435), PS2 (Ser327), ERK1/2; assay: Western blotting of phosphorylation of TACE, Presenilin 2 and ERK1/2
# Procedure: FIG. 9. EpEX induces the phosphorylation and activity of TACE and γ-secretase. MSCs were stimulated by EpEX for the indicated times, and the activity of TACE and γ-secretase were detected. MSCs were stimulated by EpEX (3 μg/mL) for the indicated times. Western blot analysis was performed to detect the phosphorylation of TACE and Presenilin 2.
# FIG. 10. EpEX and EGF induce the phosphorylation of TACE, ERK1/2 and PS2. MSCs were treated with either EGF, EpEX, or co-treated with EGF and EpEX for 5 min. The phosphorylation of ERK1/2 was examined by Western blotting with specific antibodies. […] The phosphorylation of ERK1/2, TACE (Ser435), PS2 (Ser327) were examined by Western blotting with specific antibodies.
# Western blotting was performed as previously described (Takahashi et al., 2003). Cells were lysed in lysis buffer (150 mM NaCl, 50 mM Tris-HCl (pH 7.4), 1% Nonidet P-40), containing a protease inhibitor mix (Roche Applied Science). Nuclear fractions and cytoplasmic fractions were separated by the Nuclear/Cytosol Fractionation Kit according to the manufacturer's instructions (BioVision Inc., Milpitas, CA, USA). Protein samples were separated by SDS-PAGE under denaturing conditions, and transferred to a PVDF membrane (Millipore). To probe for pluripotency markers, membranes were incubated with the indicated antibodies against Oct4 (1:1000, Abcam, Cambridge, UK), Nanog (1:1000, Genetex), Lin28 (1:1000, Genetex) or Sox2 (1:1000, Genetex). The CDK and cyclin antibodies were from the CDK and Cyclin Antibody Sampler Kits (Cell Signalling Technology, #9868 and #9869 respectively), including antibodies against cylin D1, D2, E1, and CDK4, CDK9 (1:1000). EpCAM (1:1000, Genetex), phospho-EGFR (1:1000, Cell signaling), EGFR (1:1000, Cell signaling), HMGA2 (1:1000, Cell signaling) or GAPDH (1:10000, Abcam) were also used. After incubation with primary antibody, the membranes were incubated with horseradish peroxidase (HRP)-conjugated secondary antibodies, goat anti-mouse IgG (1:3000, Santa Cruz, CA) or goat anti-rabbit IgG (1:3000, Santa Cruz, CA). […]
# [4] = tested on: STAT3 (Tyr705); assay: STAT3 phosphorylation by Western blotting; conditions: MSCs treated with the substance
# Procedure: After treatment, the protein levels of total STAT3 and phospho-STAT3 (Tyr705) were examined by Western blotting. […] Cell cycle progression was investigated by flow cytometry with PI staining. Fraction of cells in each phase (G1, S, G2/M) of the cell cycle was evaluated. Cells expressing STAT3 shRNA were treated with EpEX for 18 h, after which cell cycle progression was investigated by flow cytometry with PI staining. Fraction of cells in each phase (G1, S, G2/M) of the cell cycle was evaluated. […] The protein levels of cell cycle regulators (cyclin D1, cyclin D2, cyclin E1, CDK4 and CDK9) and pluripotency factors (Oct4, Sox2, c-Myc, Lin28) were examined by Western blotting. MSCs expressing STAT3 shRNA or shLuc were stimulated with EpEX. After treatment, the protein levels of cell cycle regulators (cyclin D1, cyclin D2, cyclin E1, CDK4 and CDK9) and pluripotency factors (Oct4, Sox2, c-Myc, and Lin 28) were examined by Western blotting. […] After treatment, the gene expression of pluripotency factors (Oct4, Sox2, c-Myc, Lin28 and EpCAM) was examined by qPCR.
# FIG. 8. EpEX and EGF induce the phosphorylation of EGFR and STAT3. […] The phosphorylation of EGFR (Tyr845) and STAT3 (Tyr705) were examined by Western blotting with specific antibodies.
# Western blotting was performed as previously described (Takahashi et al., 2003). […]
molecule,measurement,setting,value
B1,expression of the gene for Oct4,[1],can induce
same,"protein levels of the stemness markers Oct4, Sox2, c-Myc and EpCAM",[2],increased
same,phosphorylation of TACE,[3]; EpEX 3 μg/mL,induced
same,phosphorylation of γ-secretase (Presenilin 2),[3]; EpEX 3 μg/mL,induced
same,phosphorylation of ERK1/2,"[3]; EpEX, EGFR-dependent",can induce
same,STAT3 phosphorylation,[4],stimulates

# — US20260125649A1, “MEDIUM COMPOSITION AND METHOD FOR CULTURING MESENCHYMAL STEM CELLS” (ACADEMIA SINICA, priority 2018, published 2026)
